Measurements reported in US7018791B1, “Binding complexes” (Institute of Cancer Research: Royal Cancer Hospital, priority 1997, dated 2006).
Blank lines part the entries; values can stand above or below the molecule they belong to. * marks the point of attachment. Biotin = O=C1N[C@H]2[C@H](CS[C@H]2CCCCC(=O)*)N1

Experiments:
[1] = system: T1, CCT; assay: Interaction of soluble biotinylated peptides with CCT (native PAGE, streptavidin/Neutravidin-HRP blot); type: binding, mouse
T1 construct: Take 20S mouse testis sucrose gradient fractions enriched in CCT; from tissue; host or cells: mouse testis, 20S sucrose gradient fractions

[2] = target: T2, mouse CCTγ subunit (mouse, UniProt P80318 1-545); assay: superimposable bands, 6% non-denaturing PAGE Western blot of sucrose fractions 13 and 14; footnote: not very clear in mouse testis but substantiated in Human 293 cells
T2 construct: Endogenous subunit in mouse testis sucrose fractions
T2 sequence (looked up): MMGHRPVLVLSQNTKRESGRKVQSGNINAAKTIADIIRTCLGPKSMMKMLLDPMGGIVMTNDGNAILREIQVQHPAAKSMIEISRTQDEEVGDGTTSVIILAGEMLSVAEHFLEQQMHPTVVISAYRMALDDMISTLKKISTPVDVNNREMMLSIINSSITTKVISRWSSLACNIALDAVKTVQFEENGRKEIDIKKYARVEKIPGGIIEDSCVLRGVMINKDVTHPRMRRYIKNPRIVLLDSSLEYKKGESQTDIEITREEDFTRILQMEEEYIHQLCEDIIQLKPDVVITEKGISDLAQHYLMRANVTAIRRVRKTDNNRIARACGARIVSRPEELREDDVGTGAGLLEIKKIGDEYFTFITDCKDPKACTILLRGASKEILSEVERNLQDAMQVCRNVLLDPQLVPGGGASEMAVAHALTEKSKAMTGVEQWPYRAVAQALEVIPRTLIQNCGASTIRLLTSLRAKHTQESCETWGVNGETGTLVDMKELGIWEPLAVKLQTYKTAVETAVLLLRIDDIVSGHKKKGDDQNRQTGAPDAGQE

[3] = system: CCT; assay: In vitro translation in rabbit reticulocyte lysate, interaction with CCT on native PAGE; type: binding; details: kinetics different from folding substrates actin or tubulins
Protocol: Time courses of interactions of cyclins with CCT were analysed on 6% native polyacrylamide gels (Liou & Willison,EMBO J. 16, 4311–4316, 1997). At the indicated times, 5 μl aliquots of the lysate reactions were added to 7 μl of […] EDTA (ph 8.0) and 4 μl of 4× gel loading buffer and placed on ice. The lanes 1–6 show CCT a at t=0, 5, 10, 20, 30, 60 minutes. Lanes 7–12 show pBSK CY1 1 (mouse D1) at t=0, 5, 10, 20, 30, 60 minutes.
Upon in vitro translation of actin mRNA in rabbit reticulocyte lysate, several truncated forms of ^35S-actin are captured by and accumulate on CCT. This is also the case for α-tubulin (Liou, K. F., et al, Biological Chem. Hoppe-Seler 379, 311–319, 1998). […] Thus, the actin is fragments are not ribosome released nascent chains, but are the consequence of initiation of translation at internal methionine residues in actin, and a comparison of the experimentally determined molecular weights of the truncated forms with the sequential occurrence of the methionines in mouse β-actin supports this interpretation. […] Therefore, no fragments smaller than 29 kDa are produced by internal initiation in the IVT reaction.
The present inventors made fusion proteins which linked β-Actin Site I (residues 31–70) or Site II residues 178–262; 6 of the peptides (Table 2) are located in this segment) containing fragments to the C-terminus of Ha-Ras (residues 1–166). […]

[4] = target: T3, human CCTγ subunit (human 293 cells) (human, UniProt P49368 1-545); assay: superimposable bands, non-denaturing PAGE Western blot of sucrose fractions 13 and 14 of human 293 cells
T3 sequence (looked up): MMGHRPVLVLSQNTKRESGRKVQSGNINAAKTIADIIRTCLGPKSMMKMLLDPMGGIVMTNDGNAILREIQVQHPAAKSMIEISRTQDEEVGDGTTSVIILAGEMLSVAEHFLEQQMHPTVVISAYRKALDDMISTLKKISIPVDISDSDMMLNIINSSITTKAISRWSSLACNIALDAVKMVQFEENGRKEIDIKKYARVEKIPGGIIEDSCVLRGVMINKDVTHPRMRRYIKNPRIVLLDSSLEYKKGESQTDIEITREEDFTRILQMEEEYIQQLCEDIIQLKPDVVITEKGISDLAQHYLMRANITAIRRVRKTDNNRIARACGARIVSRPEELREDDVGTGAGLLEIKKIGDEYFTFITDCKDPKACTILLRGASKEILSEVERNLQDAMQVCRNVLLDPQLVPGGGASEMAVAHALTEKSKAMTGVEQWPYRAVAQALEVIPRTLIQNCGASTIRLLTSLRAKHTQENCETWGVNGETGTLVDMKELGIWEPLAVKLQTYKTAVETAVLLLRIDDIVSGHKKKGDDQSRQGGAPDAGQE

[5] = target: T4, mouse CCTα subunit (wildtype) (mouse, UniProt P11983 1-556); assay: superimposable bands, 6% non-denaturing PAGE Western blot of mouse testis sucrose fractions 13 and 14, subunit-specific antibodies
T4 construct: in the 23C experiment translated in vitro and incorporated into rabbit CCT; also called CCTa; CCTA

[6] = target: T5, CCT (chaperonin containing TCP-1) complex from mouse testis (mouse, UniProt P11983 1-556; P80314 2-535; P80318 1-545; P80315 1-539; P80316 2-541; P80317 …); assay: biotinylated peptide with CCT in solution, 6% native PAGE, blot probed with streptavidin/Neutravidin-HRP
T5 construct: Hetero-oligomer: eight different subunits in each of two rings (double toroid, about 920 kDa), enriched from mouse testis 20S sucrose gradient fractions; Testis also holds CCTζ2; also called CCT complex; intact CCT

Molecule: biotin-SGSG-AAAAAQGVMVGMGQK [peptide 8.6]
effect of alanine substitution in GRPRH core sequence on binding to CCT ([1]; free solution assay, derivatives of peptide 8): abrogation of binding to CCT

Molecule: biotin-SGSG-GRPRHQGVMVGMGQK [peptide 8]
binding of peptide to CCT in free solution (co-migration with CCT complex) ([1]; biotinylated peptide, non denaturing gel): co-migrate with the CCT complex

binding result [2]: binds
B1: mouse CCTβ subunit (other, UniProt P80314 2-535, looked up)
chain: ASLSLAPVNIFKAGADEERAETARLSSFIGAIAIGDLVKSTLGPKGMDKILLSSGRDAALMVTNDGATILKNIGVDNPAAKVLVDMSRVQDDEVGDGTTSVTVLAAELLREAESLIAKKIHPQTIISGWREATKAAREALLSSAVDHGSDEARFWQDLMNIAGTTLSSKLLTHHKDHFTKLAVEAVLRLKGSGNLEAIHVIKKLGGSLADSYLDEGFLLDKKIGVNQPKRIENAKILIANTGMDTDKIKIFGSRVRVDSTAKVAEIEHAEKEKMKEKVERILKHGINCFINRQLIYNYPEQLFGAAGVMAIEHADFAGVERLALVTGGEIASTFDHPELVKLGSCKLIEEVMIGEDKLIHFSGVALGEACTIVLRGATQQILDEAERSLHDALCVLAQTVKDPRTVYGGGCSEMLMAHAVTQLANRTPGKEAVAMESFAKALRMLPTIIADNAGYDSADLVAQLRAAHSEGHITAGLDMKEGTIGDMAVLGITESFQVKRQVLLSAAEAAEVILRVDNIIKAAPRKRVPDHHPC
notes: Endogenous subunit in mouse testis sucrose fractions

binding to CCT (binding partner) [3]: specific binding partners for CCT
B2: Cyclin D2: cyclin D2, CCT binding partner (protein, UniProt P30279 1-289, looked up)
G1/S-specific cyclin-D2: MELLCHEVDPVRRAVRDRNLLRDDRVLQNLLTIEERYLPQCSYFKCVQKDIQPYMRRMVATWMLEVCEEQKCEEEVFPLAMNYLDRFLAGVPTPKSHLQLLGAVCMFLASKLKETSPLTAEKLCIYTDNSIKPQELLEWELVVLGKLKWNLAAVTPHDFIEHILRKLPQQREKLSLIRKHAQTFIALCATDFKFAMYPPSMIATGSVGAAICGLQQDEEVSSLTCDALTELLAKITNTDVDCLKACQEQIEAVLLNSLQQYRQDQRDGSKSEDELDQASTPTDVRDIDL

binding to CCT (binding partner) [3]: specific binding partners for CCT
B3: Cyclin D1: mouse cyclin D1 translated in rabbit reticulocyte lysate (protein)
chain: MEHQLLCCEVETIRRAYPDTNLLNDRVLRAMLKTEETCAPSVSYFKCVQKEIVPSMRKIVATWMLEVCEEQKCEEEVFPLAMNYLDRFLSLEPLKKSRLQLLGATCMFVASKMKETIPLTAEKLCIYTDNSIRPEELLQMELLLVNKLKWNLAAMTPHDFIEHFLSKMPEADENKQTIRKHAQTFVALCATDVKFISNPPSMVAAGSVVAAMQGLNLGSPNNFLSCYRTTHFLSRVIKCDPDCLRACQEQIEALLESSLRQAQQNVDPKATEEEGEVEEEAGLACTPTDVRDVDI

binding result [4]: binds
B4: human CCTβ subunit (human 293 cells) (other, UniProt P78371 2-535, looked up)
chain: ASLSLAPVNIFKAGADEERAETARLTSFIGAIAIGDLVKSTLGPKGMDKILLSSGRDASLMVTNDGATILKNIGVDNPAAKVLVDMSRVQDDEVGDGTTSVTVLAAELLREAESLIAKKIHPQTIIAGWREATKAAREALLSSAVDHGSDEVKFRQDLMNIAGTTLSSKLLTHHKDHFTKLAVEAVLRLKGSGNLEAIHIIKKLGGSLADSYLDEGFLLDKKIGVNQPKRIENAKILIANTGMDTDKIKIFGSRVRVDSTAKVAEIEHAEKEKMKEKVERILKHGINCFINRQLIYNYPEQLFGAAGVMAIEHADFAGVERLALVTGGEIASTFDHPELVKLGSCKLIEEVMIGEDKLIHFSGVALGEACTIVLRGATQQILDEAERSLHDALCVLAQTVKDSRTVYGGGCSEMLMAHAVTQLANRTPGKEAVAMESYAKALRMLPTIIADNAGYDSADLVAQLRAAHSEGNTTAGLDMREGTIGDMAILGITESFQVKRQVLLSAAEAAEVILRVDNIIKAAPRKRVPDHHPC

binding result [5]: binds
B5: mouse CCTε subunit (other, UniProt P80316 2-541, looked up)
chain: ASVGTLAFDEYGRPFLIIKDQDRKSRLMGLEALKSHIMAAKAVANTMRTSLGPNGLDKMMVDKDGDVTITNDGATILSMMDVDHQIAKLMVELSKSQDDEIGDGTTGVVVLAGALLEEAEQLLDRGIHPIRIADGYEQAARIAIQHLDKISDKVLVDINNPEPLIQTAKTTLGSKVINSCHRQMAEIAVNAVLTVADMERRDVDFELIKVEGKVGGRLEDTKLIKGVIVDKDFSHPQMPKKVVDAKIAILTCPFEPPKPKTKHKLDVMSVEDYKALQKYEKEKFEEMIKQIKETGANLAICQWGFDDEANHLLLQNGLPAVRWVGGPEIELIAIATGGRIVPRFSELTSEKLGFAGVVQEISFGTTKDKMLVIEKCKNSRAVTIFIRGGNKMIIEEAKRSLHDALCVIRNLIRDNRVVYGGGAAEISCALAVSQEADKCPTLEQYAMRAFADALEVIPMALSENSGMNPIQTMTEVRARQVKESNPALGIDCLHKGSNDMQYQHVIETLIGKKQQISLATQMVRMILKIDDIRKPGESEE
notes: as for B1

binding result [5]: binds
B6: mouse CCTη subunit (other, UniProt P80313 1-544, looked up)
chain: MMPTPVILLKEGTDSSQGIPQLVSNISACQVIAEAVRTTLGPRGMDKLIVDGRGKATISNDGATILKLLDVVHPAAKTLVDIAKSQDAEVGDGTTSVTLLAAEFLKQVKPYVEEGLHPQIIIRAFRTATQLAVNKIKEIAVTVKKQDKVEQRKMLEKCAMTALSSKLISQQKVFFAKMVVDAVMMLDELLQLKMIGIKKVQGGALEESQLVAGVAFKKTFSYAGFEMQPKKYKNPKIALLNVELELKAEKDNAEIRVHTVEDYQAIVDAEWNILYDKLEKIHQSGAKVILSKLPIGDVATQYFADRDMFCAGRVPEEDLKRTMMACGGSIQTSVNALVPDVLGHCQVFEETQIGGERYNFFTGCPKAKTCTIILRGGAEQFMEETERSLHDAIMIVRRAIKNDSVVAGGGAIEMELSKYLRDYSRTIPGKQQLLIGAYAKALEIIPRQLCDNAGFDATNILNKLRARHAQGGMWYGVDINNENIADNFQAFVWEPAMVRINALTAASEAACLIVSVDETIKNPRSTVDPPAPSAGRGRGQARFH
notes: as for B1

B7: peptide 8.6, biotin-SGSG-AAAAAQGVMVGMGQK (peptide)
peptide: Biotin-SGSGAAAAAQGVMVGMGQK-NH2
SMILES: CSCC[C@H](NC(=O)CNC(=O)[C@@H](NC(=O)[C@H](CCSC)NC(=O)[C@@H](NC(=O)CNC(=O)[C@H](CCC(N)=O)NC(=O)[C@H](C)NC(=O)[C@H](C)NC(=O)[C@H](C)NC(=O)[C@H](C)NC(=O)[C@H](C)NC(=O)CNC(=O)[C@H](CO)NC(=O)CNC(=O)[C@H](CO)NC(=O)CCCC[C@@H]1SC[C@@H]2NC(=O)N[C@@H]21)C(C)C)C(C)C)C(=O)NCC(=O)N[C@@H](CCC(N)=O)C(=O)N[C@@H](CCCCN)C(N)=O
notes: All five core residues replaced by alanine
binding result [6]: no binding (tested: peptide 13.3 µM or 1.33 µM, CCT 70 nM)
